Reference: PMC2821902 (Biochemistry, 2009)
Read-outs that look alike come from different tables or passages of the source.

Tests used:
[1] = target: Dynein light chain LC8 (wild type) (UniProt Q24117); assay: NMR; details: cited from earlier work
[2] = target: the molecule itself
[3] = target: the molecule itself; assay: NMR HSQC peak intensities of monomer and dimer signals in slow exchange
[4] = target: the molecule itself; assay: NMR NZ-exchange spectroscopy
[5] = target: the molecule itself; assay: NMR NZ-exchange spectroscopy; remark: listed apart in the source
[6] = target: the molecule itself; remark: listed apart in the source

Dynein light chain LC8 (wild type)
KD ([1]; pH high pH (limit (so in the source))): < 1 µM
pKa, His55 of LC8 (dimer) ([1]; pH): < 4.5 pH units
pKa, His55 of LC8 (monomer) ([1]; pH): 6.5 pH units

B1: LC8 Ser88Glu mutant (phosphomimetic) (natural protein)
chain: MSDRKAVIKNADMSEEMQQDAVDCATQALEKYNIEKDIAAYIKKEFDKKYNPTWHCIVGRNFGSYVTHETRHFIYFYLGQVAILLFKEG
KD of the protonation state His55+/His55+, Glu88/Glu88 (from the model) [2]: 25000 µM
KD of the protonation state His55+/His55+, Glu88/Glu88− (from the model) [2]: 110000 µM
KD of the protonation state His55+/His55+, Glu88−/Glu88− (from the model) [2]: 1.8e+07 mM
KD of the protonation state His55/His55+, Glu88/Glu88 (from the model) [2]: 17 µM
KD of the protonation state His55/His55+, Glu88/Glu88− (from the model) [2]: 6800 µM
KD of the protonation state His55/His55+, Glu88−/Glu88− (from the model) [2]: 12000 mM
KD of the protonation state His55/His55, Glu88/Glu88 (from the model) [2]: 0.071 µM
KD of the protonation state His55/His55, Glu88/Glu88− (from the model) [2]: 28 µM
Kd [3]: 930 µM
koff [4]: 1.9 to 5.7 s⁻¹
kon [4]: 1200 to 3000 M⁻¹ s⁻¹

B2: wild-type dynein light chain LC8 (natural protein)
chain: MSDRKAVIKNADMSEEMQQDAVDCATQALEKYNIEKDIAAYIKKEFDKKYNPTWHCIVGRNFGSYVTHETRHFIYFYLGQVAILLFKSG
koff [5]: 0.05 to 0.24 s⁻¹
kon [5]: 1000 to 3000 M⁻¹ s⁻¹
KD of the protonation state His55+/His55+ (from the model) [2]: 21000 µM
KD of the protonation state His55/His55 (from the model) [2]: 0.06 µM
KD of the protonation state His55/His55+ (from the model) [2]: 14 µM
KD at neutral pH [6]: < 0.1 µM
